Test results published in publication PMC9878614.

Tests used:
[1] = molecular target: F-actin (UniProt P68133); settings: cited from earlier work
[2] = molecular target: F-actin (filamentous actin) (human (endogenous in HEK293)) (UniProt P60709); test: single-molecule localisation microscopy (direct-LIVE-PAINT, TIRF); live HEK293 cells transiently transfected with LifeAct-14-EGFP plasmid (4 ng or 20 ng DNA), imaged 24 h later at 37°C; 488 nm excitation, 50 ms exposure, 2000 frames; transient binding events read as single-molecule localisations

localizations/s (4 ng DNA transfected) (localizations/s) [2]	localizations/s (20 ng DNA transfected) (localizations/s) [2]	Substance	Kd [1]
		LifeAct-14 1-14 (from UniProt Q08641)	1200 nM
540	1860	LifeAct-14-EGFP (from UniProt Q08641 1-14) (peptide)	
